Source: US20080039532A1, “Compounds For Specific Viral Target” (priority 2004, published 2008)
Values joined by “and” are separate entries in the source; they are usually repeats but may differ in a detail not shown here. Equal entries are not always repeated.

Target: N-heptad repeat of HIV-1's gp41 (HIV-1 strain IIIB) (HIV-1 strain IIIB), P04578
Assay: cell-based or functional assay

N-heptad repeat of HIV-1's gp41 (HIV-1 strain IIIB) (HIV-1 strain IIIB), P04578, sequence (P04578 540-590 limits assumed): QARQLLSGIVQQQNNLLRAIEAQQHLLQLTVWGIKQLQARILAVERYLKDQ

## WMEWDREINNYTSLIHSLIEESQNQQERNEQELL (modifications not checked) [CJC-1646 (SEQ ID NO:93), native (unreactive) C34]
  RT Results (cpm) (Day 7), HIV-1 IIIB in CBMC, drug at 0 nM (no-drug baseline): 49000 cpm and 46300 cpm and 47400 cpm
  RT Results (cpm) (Day 7), HIV-1 IIIB in CBMC, drug at 125 nM: 5850 cpm and 5040 cpm and 5220 cpm
  RT Results (cpm) (Day 7), HIV-1 IIIB in CBMC, drug at 600 nM: 4920 cpm and 5850 cpm and 5090 cpm
  RT Results (cpm) (Day 7), HIV-1 IIIB in CBMC, drug at 3000 nM: 5810 cpm and 6960 cpm and 5970 cpm

## WMEWKREINNYTSLIHSLIEESQNQQERNEQELL (modifications not checked) [CJC-1655 (SEQ ID NO:32), C34 with linker-R1-R2-M inserted at position Asp5]
  RT Results (cpm) (Day 7), HIV-1 IIIB in CBMC, drug at 0 nM (no-drug baseline): 71900 cpm and 54100 cpm and 51000 cpm
  RT Results (cpm) (Day 7), HIV-1 IIIB in CBMC, drug at 125 nM: 6320 cpm and 6930 cpm and 5910 cpm
  RT Results (cpm) (Day 7), HIV-1 IIIB in CBMC, drug at 600 nM: 6480 cpm and 11900 cpm and 6030 cpm
  RT Results (cpm) (Day 7), HIV-1 IIIB in CBMC, drug at 3000 nM: 7970 cpm and 5900 cpm and 6210 cpm
